# Measurements published in publication PMC10840515.
# Target: HLA-DR1 (HLA-DRA*0101, HLA-DRB1*0101) (human)
# Assay: ELISA
row,Substance,IC50
1,SARS-CoV-2 Spike peptide S511-530,2620 nM
2,SARS-CoV-2 Spike peptide S167-181,> 10000 nM
3,SARS-CoV-2 Spike peptide S512-526,662 nM
4,SARS-CoV-2 orf1ab (nsp3) peptide nsp3 1350-1364,140 nM
5,SARS-CoV-2 Spike peptide S866-880,1150 nM
6,SARS-CoV-2 Spike peptide S486-505 (Wuhan HU-1),3050 nM
7,SARS-CoV-2 orf1ab (nsp14) peptide nsp14 6420-6434,541 nM

# Target: HLA-DR1 (HLA-DRA*0101, HLA-DRB1*0101) (human)
# Assay: FP
row,Substance,IC50
1,S1015-1029,7390 nM
2,E56-70,> 10000 nM
3,nsp12 5019-5033,2890 nM
4,S344-358,> 10000 nM
5,N49-63,493 nM
6,S818-832,> 10000 nM
7,S235-249,8130 nM
8,nsp6 3801-3815,1520 nM
9,N127-141,> 10000 nM
10,N224-238,2770 nM
11,S339-353,5990 nM
12,S990-1004,> 10000 nM
13,N328-342,4010 nM
14,ORF8 43-57,430 nM
15,N108-122,> 10000 nM

# Target: HLA-DR1 (HLA-DRA*0101, HLA-DRB1*0101) (human)
# Assay: ELISA
# Remark: another data set of the same source
row,Substance,IC50
1,SARS-CoV-2 Spike peptide S486-505 (Wuhan HU-1),1950 nM
